Results as given in the supplement of paper PMC7877785.
± gives the uncertainty stated by the source.

Assay: self-splicing fitness, log relative to wild type (ln ratio); higher = more splicing; Tetrahymena group I intron in knt gene, E. coli kanamycin selection, DiMSum; sequences stand for … in CUCUCU…GGAGGGAAAAGUUAUCAGGCAUGCACCUGGUAGCUAGUCUUUAAACCAAUAGAUUGCAUCGGUUUAAAAGGCAAGACCGUCAAAUUGCGGGAAAGGGGUCAACAGCCGUUCAGUACCAAGUCUCAGGGGAAACUUUGAGAUGGCCUUGCAAAGGGUAUGGUAAUAAGCUGACGGACAUGGUCCUAACCACGCAGCCAAGUCCUAAGUCAACAGAUCUUCUGUUGAUAUGGAUGCAGUUCACAGACUAAAUGUCGGUCGGGGAAGAUGUAUUCUUCUCAUAAGAUAUAGUCGGACCUCUCCUUAAUGGGAGCUAGCGGAUGAAGUGAUGCAACACUGGAGCCGCUGGGAACUAAUUUGUAUGCGAAAGUAUAUUGAUUAGUUUUGGAGUACUCGUGGUCG
How it was run: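 Library with all eight P1ex-region intron nucleotides randomised, intron inside the knt kanamycin-resistance gene on pET-22b(+), in E. coli BL21(DE3). Cells grew overnight at 37°C or 30°C on LB agar with or without 25 μg/mL kanamycin (plus 100 μg/mL carbenicillin, 50 μM IPTG, 0.2% rhamnose), in six replicate transformations. Pooled colonies were amplicon-sequenced on Illumina HiSeq 2500. DiMSum fitness is the error-weighted combination of wild-type-normalised replicate fold changes, kanamycin versus none.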

Sequence	self-splicing fitness (ln) (30 °C)	self-splicing fitness (ln) (37 °C)
AGAGAGCAAUAUUACGAUUG	-3.12 ± 0.25	-2.88 ± 0.35
GUCUAGCAAUAUUACGGCCU	-2.09 ± 0.19	-1.19 ± 0.16
